The values below come from publication PMC9278102.

The target in experiment [1] is hACE2-fc dimer (human) (UniProt Q9BYF1). Description: SPR. (In general: In SPR one partner is held on a chip, and binding of the other changes the refractive index at the surface.)
The target of experiment [2] is SARS-CoV-2 S1-S2-His-T4 trimer (SARS-CoV-2 (wt; Wuhan strain)). Description: SEC. For orientation: In gel filtration, larger molecules generally elute earlier.

UniProt Q9BYF1, sequence (Q9BYF1 18-740): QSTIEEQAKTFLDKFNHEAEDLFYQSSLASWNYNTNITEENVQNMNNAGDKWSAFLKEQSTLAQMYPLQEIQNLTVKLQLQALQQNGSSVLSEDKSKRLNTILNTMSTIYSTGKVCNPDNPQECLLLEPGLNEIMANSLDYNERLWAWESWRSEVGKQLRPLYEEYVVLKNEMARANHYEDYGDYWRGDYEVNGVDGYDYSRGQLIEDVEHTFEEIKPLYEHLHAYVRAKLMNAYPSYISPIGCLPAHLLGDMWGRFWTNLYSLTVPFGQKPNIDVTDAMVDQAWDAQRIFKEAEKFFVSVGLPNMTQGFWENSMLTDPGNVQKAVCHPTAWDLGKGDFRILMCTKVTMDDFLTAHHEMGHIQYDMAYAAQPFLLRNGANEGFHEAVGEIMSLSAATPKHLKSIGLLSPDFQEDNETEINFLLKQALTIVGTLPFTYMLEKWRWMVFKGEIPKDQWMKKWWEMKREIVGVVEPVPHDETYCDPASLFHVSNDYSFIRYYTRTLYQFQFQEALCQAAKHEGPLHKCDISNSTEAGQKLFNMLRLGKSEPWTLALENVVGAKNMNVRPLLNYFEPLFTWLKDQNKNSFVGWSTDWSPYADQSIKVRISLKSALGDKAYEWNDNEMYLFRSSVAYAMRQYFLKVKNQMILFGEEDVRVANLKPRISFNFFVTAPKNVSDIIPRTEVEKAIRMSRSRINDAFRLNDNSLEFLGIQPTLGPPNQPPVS

A word on the Kd: it is a measure of binding affinity in units of concentration. A high value points to weaker binding. Usually stoichiometry N stands for the number of molecules, sites or subunits per partner or assembly. In experiment [1], “SARS-CoV-2 S1-S2-His-T4 trimer (domain or fragment)” came in with a KD1 (two-state fit, primary binding) of 1.8 nM; a Kd of 0.04 nM; a ka1 (two-state fit, primary binding) of 780000 M⁻¹ s⁻¹; a ka2 (two-state fit, secondary transition) of 0.011 M⁻¹ s⁻¹. In experiment [1], this substance displayed a kd1 (two-state fit, primary binding) of 0.0014 s⁻¹ and a kd2 (two-state fit, secondary transition) of 0.00024 s⁻¹. In experiment [2], this substance had a stoichiometry N of 3.
